Experimental findings from US20240199757A1 (UNIVERSITY OF CHICAGO, published 2024) are described below.

Numbering of substitutions follows the chain as printed.

The target of series [1] is T1, Full-length cynomolgus NT5E (recombinant) (cynomolgus, UniProt P21589 27-549 (human entry)).
T1 construct: also called cNT5E; cyno NT5E
T1 chain: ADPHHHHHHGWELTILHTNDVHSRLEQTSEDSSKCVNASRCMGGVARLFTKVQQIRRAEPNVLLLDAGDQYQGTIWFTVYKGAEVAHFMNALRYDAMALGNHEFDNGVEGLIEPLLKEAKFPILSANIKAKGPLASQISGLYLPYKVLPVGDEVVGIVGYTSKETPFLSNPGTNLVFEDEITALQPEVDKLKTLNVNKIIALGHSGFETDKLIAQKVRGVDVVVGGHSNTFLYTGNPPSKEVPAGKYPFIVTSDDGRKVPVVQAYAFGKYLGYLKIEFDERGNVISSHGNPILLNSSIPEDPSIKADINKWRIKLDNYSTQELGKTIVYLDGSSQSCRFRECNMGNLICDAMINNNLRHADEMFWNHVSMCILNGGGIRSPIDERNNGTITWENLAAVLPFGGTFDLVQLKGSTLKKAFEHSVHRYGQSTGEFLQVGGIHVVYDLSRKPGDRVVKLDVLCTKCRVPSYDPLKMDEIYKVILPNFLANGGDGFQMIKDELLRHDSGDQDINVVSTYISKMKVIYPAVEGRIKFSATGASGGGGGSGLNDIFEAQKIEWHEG
Description: SPR, His-captured NT5E, 1 mM ATP. How it is done: (§1) All SPR experiments were performed at 25° C. using MASS-1 (Bruker) instrument. hNT5E, mNT5E and cNT5E were immobilized onto a nitrilotriacetic acid (NTA) sensor chip via His-tag. For kinetic experiments, after ligand immobilization, 2-fold serial dilutions of the Fabs were injected. After double-reference subtraction data were analyzed with BiaEvaluation (GE Healthcare) or Sierra Analyser (Bruker) software. The experiments were carried in buffers in presence and absence of 1 mM ATP to compare the kinetic parameters of the Fabs binding to closed and open form of NT5E.
On the technique in general: SPR reads the build-up and loss of mass on a sensor chip optically.

Series [2] concerns the target T2, Full-length human NT5E (recombinant, in-house) (human, UniProt P21589 27-549).
T2 construct: also called hNT5E; hNT5EWT
T2 sequence: T1 chain with T209M, M363T, I476V
Description: SPR, His-captured NT5E, 1 mM ATP. How it is done:
as §1

In series [3] the target is T2, Full-length human NT5E (recombinant, …). Description: DSF thermal shift, 1.5-fold molar excess of Fab, 1 mM ATP (NT5E alone 59° C. and 64° C.). As to the method:
With 1 mM ATP alone (red dashed line), the TM shifts from one transition at 49° C. to two transitions at TM 59° C. and 64° C. […] Thermal shift assays of substrate binding knock-out variants hNT5EDF (FIG. 2B) and hNT5EFF (FIG. 2C) show no change in thermal stability with the addition of ATP.
Thermal stability of samples was analyzed by differential scanning fluorimetry (DSF) using a real-time PCR instrument (Bio-Rad CFX384). Protein samples were mixed with 4× Sypro Orange at a final 4 μM concentration. For target/Fab complexes, 1.5-fold molar excess of Fab was used. All reactions were performed in triplicates in a 384-well plate. Thermal melting curves were monitored from 25° C. to 95° C. in steps of 0.5° C./30 s. Wavelengths of 490 and 575 nm were used for excitation and emission, respectively. The melting temperatures were inferred from the first derivative of the melting curves from the mean of triplicate runs using CFX software provided by the manufacturer.

B1: 1789 Fab (Fab, V domains shown)
VH: EVQLVESGGGLVQPGGSLRLSCAASGFNVSYSSIHWVRQAPGKGLEWVASISSSSGYTYYADSVKGRFTISADTSKNTAYLQMNSLRAEDTAVYYCARNYWGWYPFYYFAFDYWGQGTLVTV
VL: DIQMTQSPSSLSASVGDRVTITCRASQSVSSAVAWYQQKPGKAPKLLIYSASSLYSGVPSRFSGSRSGTDFTLTISSLQPEDFATYYCQQGWDYPITFGQGTKVEIKR
A word on the Kd: it is the free concentration of one partner at which half of the binding sites on the other are occupied at equilibrium, for simple one-to-one binding. A word on the koff: it is a measure of how fast the partners let go of each other. Broadly, the kon is the second-order rate constant of association. Consider B1, for which, in series [1], the Kd is 0.032 µM, the koff was determined as 0.0051 s⁻¹ and the kon was determined as 160000 M⁻¹ s⁻¹. In addition, in series [2], the Kd was found to be 0.042 µM, the koff is 0.0073 s⁻¹ and the kon came to 170000 M⁻¹ s⁻¹. In addition, in series [3], the “TM of NT5E in the presence of the Fab” value was determined as 66 ° C.
